According to patent US20240174727A1, “LONG-ACTING NATRIURETIC PEPTIDES AND USES THEREOF” (Eli Lilly and Company, priority 2022, published 2024):
Numbered stars: 1 amine (or outer) side, 2 acyl side, 3 side chain; on linkers, the order of the positions; unused ones are H or OH. Bridge positions count the residues as written; N and C are the ends. Square brackets hold non-standard residues; d marks the D form. Ends that are not written are not given here. * marks the point of attachment. thioacetal = thioacetal linkage between two cysteines (intrachain bond at the bracketed Cys); C20 diacid = O=C(O)CCCCCCCCCCCCCCCCCCC(=O)*; γGlu = O=C(O)[C@H](CCC(=O)[*:2])N[*:1]; 4Pal = N[C@@H](Cc1ccncc1)C(=O)O; Aib = CC(C)(N)C(=O)O; βAla = NCCC(=O)O

T1: human NPRA (human, UniProt P16066 33-1061)
T1 sequence (looked up): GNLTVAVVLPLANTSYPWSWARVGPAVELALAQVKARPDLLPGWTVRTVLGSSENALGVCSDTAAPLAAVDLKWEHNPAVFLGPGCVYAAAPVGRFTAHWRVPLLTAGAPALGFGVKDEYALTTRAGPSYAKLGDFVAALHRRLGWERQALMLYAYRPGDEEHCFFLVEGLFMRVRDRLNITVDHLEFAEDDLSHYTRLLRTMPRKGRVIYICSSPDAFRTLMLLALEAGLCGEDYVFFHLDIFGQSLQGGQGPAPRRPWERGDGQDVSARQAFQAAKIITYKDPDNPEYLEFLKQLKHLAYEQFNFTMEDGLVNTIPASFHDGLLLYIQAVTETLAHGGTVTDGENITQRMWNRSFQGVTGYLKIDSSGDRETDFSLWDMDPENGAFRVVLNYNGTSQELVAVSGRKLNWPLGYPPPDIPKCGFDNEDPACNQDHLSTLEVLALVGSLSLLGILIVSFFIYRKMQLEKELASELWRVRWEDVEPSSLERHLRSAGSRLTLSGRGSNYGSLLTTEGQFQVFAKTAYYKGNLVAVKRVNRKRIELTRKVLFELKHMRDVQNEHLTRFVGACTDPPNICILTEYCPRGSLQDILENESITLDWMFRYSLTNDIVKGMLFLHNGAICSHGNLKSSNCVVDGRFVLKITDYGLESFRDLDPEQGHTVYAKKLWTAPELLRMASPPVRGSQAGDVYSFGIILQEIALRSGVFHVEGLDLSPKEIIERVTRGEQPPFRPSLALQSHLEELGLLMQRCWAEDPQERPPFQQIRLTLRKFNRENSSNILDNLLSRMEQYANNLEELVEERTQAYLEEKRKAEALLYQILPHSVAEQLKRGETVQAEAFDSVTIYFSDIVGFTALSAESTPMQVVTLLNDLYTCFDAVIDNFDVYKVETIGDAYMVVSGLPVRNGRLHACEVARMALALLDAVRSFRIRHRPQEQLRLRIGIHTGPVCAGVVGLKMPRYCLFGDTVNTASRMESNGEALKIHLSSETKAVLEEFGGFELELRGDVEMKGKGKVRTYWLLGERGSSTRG

T2: rat NPRA (rat, UniProt P18910 29-1057)
T2 sequence (looked up): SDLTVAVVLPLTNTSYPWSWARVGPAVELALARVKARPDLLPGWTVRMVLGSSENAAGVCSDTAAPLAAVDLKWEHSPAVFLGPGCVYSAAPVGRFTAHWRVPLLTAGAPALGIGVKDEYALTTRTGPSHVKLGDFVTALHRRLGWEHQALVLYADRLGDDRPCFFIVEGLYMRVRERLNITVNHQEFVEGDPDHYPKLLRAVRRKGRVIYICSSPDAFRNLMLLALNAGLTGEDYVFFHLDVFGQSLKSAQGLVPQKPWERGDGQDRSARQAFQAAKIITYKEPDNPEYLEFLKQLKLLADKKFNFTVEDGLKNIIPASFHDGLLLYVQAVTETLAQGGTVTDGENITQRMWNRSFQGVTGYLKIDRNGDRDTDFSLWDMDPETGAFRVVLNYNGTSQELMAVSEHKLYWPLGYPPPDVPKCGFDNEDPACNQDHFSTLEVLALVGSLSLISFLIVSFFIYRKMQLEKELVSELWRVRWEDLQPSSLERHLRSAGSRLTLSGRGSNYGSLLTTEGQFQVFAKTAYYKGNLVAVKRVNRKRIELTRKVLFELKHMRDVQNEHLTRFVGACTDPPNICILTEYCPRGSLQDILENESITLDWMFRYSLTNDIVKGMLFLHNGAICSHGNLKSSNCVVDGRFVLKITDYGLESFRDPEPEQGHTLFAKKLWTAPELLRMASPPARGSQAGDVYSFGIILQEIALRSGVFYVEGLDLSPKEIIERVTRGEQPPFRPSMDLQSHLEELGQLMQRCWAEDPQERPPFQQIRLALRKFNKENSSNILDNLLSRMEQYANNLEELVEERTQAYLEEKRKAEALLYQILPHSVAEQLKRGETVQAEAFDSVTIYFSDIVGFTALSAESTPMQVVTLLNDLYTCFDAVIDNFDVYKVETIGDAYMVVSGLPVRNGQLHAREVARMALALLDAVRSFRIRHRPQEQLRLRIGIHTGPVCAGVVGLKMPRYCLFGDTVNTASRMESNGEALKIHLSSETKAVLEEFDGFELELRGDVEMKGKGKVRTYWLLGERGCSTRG

B1: rat ANP (amidated) (peptide)
peptide: SLRRSSCFGGRIDRIGAQSGLGCNSFRY-NH2
modifications: disulfide 7-23; N-terminus assumed
SMILES: CC[C@H](C)[C@@H]1NC(=O)[C@H](CCCNC(=N)N)NC(=O)[C@H](CC(=O)O)NC(=O)[C@H]([C@@H](C)CC)NC(=O)[C@H](CCCNC(=N)N)NC(=O)CNC(=O)CNC(=O)[C@H](Cc2ccccc2)NC(=O)[C@@H](NC(=O)[C@H](CO)NC(=O)[C@H](CO)NC(=O)[C@H](CCCNC(=N)N)NC(=O)[C@H](CCCNC(=N)N)NC(=O)[C@H](CC(C)C)NC(=O)[C@@H](N)CO)CSSC[C@@H](C(=O)N[C@@H](CC(N)=O)C(=O)N[C@@H](CO)C(=O)N[C@@H](Cc2ccccc2)C(=O)N[C@@H](CCCNC(=N)N)C(=O)N[C@@H](Cc2ccc(O)cc2)C(N)=O)NC(=O)CNC(=O)[C@H](CC(C)C)NC(=O)CNC(=O)[C@H](CO)NC(=O)[C@H](CCC(N)=O)NC(=O)[C@H](C)NC(=O)CNC1=O
B2: Example 61 (peptide)
peptide: SXRRSSCFGGRIDRIGHQSGLGCPSFRHGGPSSGAPPPS
modifications: HOOC-(CH2)18-CO-(γGlu)-EKEKEKG-PEG24-S-4Pal-RRSS[CFGGRIDRIGHQSGLGC]PSFRHGGPSSGAPPPS-NH2; thioacetal linkage between the bracketed Cys
B3: Example 1 (peptide)
peptide: XEKEKEKGSXRRSSCFGGRIDRIGHQSGLGCPSFRHGGPSSGAPPPS
modifications: HOOC-(CH2)18-CO-(γGlu)-EKEKEKGS-4Pal-RRSS[CFGGRIDRIGHQSGLGC]PSFRHGGPSSGAPPPS-NH2; disulfide linkage between the bracketed Cys
B4: Example 65 (peptide)
peptide: XEKEKEKGSKXRSSCFGGRIDRIGHYSGLGCPSFRHGGPSSGAPPPS
modifications: HOOC-(CH2)18-CO-(γGlu)-EKEKEKGSK-βAla-RSS[CFGGRIDRIGHYSGLGC]PSFRHGGPSSGAPPPS-NH2; thioacetal linkage between the bracketed Cys
B5: Example 2 (peptide)
peptide: XEKEKEKGSXRRSSCFGGRIDRIGHQSGLGCPSFRHGGPSSGAPPPS
modifications: HOOC-(CH2)18-CO-(γGlu)-EKEKEKGS-4Pal-RRSS[CFGGRIDRIGHQSGLGC]PSFRHGGPSSGAPPPS-NH2; thioacetal linkage between the bracketed Cys
B6: Example 3 (peptide)
peptide: EKXRSSCFGKRIDRIGHQSGLGCPSFRHGGKSSGAPPPS
modifications: HOOC-(CH2)18-CO-(γGlu)-EKEKEKG-PEG24-EK-βAla-RSS[CFGKRIDRIGHQSGLGC]PSFRHGGKSSGAPPPS-NH2; thioacetal linkage between the bracketed Cys

What was measured:
[1] = target: T1, human NPRA; test: cell-based or functional assay
[2] = target: T2, rat NPRA; test: cell-based or functional assay

Binder	cGMP Assay (EC50, pM) w/BSA [1] [pM]	cGMP Assay (EC50, pM) w/Casein [1] [pM]	cGMP Assay (EC50, pM) w/BSA [2] [pM]	cGMP Assay (EC50, pM) w/Casein [2] [pM]
B1	138	128	114	73
{C20 diacid}-[γGlu]EKEKEKGS[4Pal]KRSSCFGGKIDRIGHQSGLGCPSFRHKITAKEDE-NH2 (disulfide 15-31) [Example 34]	26100	291	422000	1200
B2	9000	912	463000	32000
{C20 diacid}-[γGlu]EKEKEKGEK[βAla]RSSCFGGRIDRIGHYSGLGCPSFRHGGPSSGAPPPS-NH2 (bridge 15-31 via thioacetal) [Example 56]	145000	855	1.38e+06	11200
B3	11600	335	81900	1810
B4	–	614	–	7420
B5	93400	1020	1.27e+06	14100
{C20 diacid}-[γGlu]EKEKEKGEK[βAla]RSSCFGGRIDRIGHYSGLGCPSFRHGPSSGAPPPS-NH2 (bridge 15-31 via thioacetal) [Example 60]	81700	453	962000	4830
B6	6920	980	959000	36600
{C20 diacid}-[γGlu]EKEKEKGS[4Pal]RRSSCFGGRIDRIGHQSGLGCPSFRHGGKSSGAPPPS-NH2 (bridge 15-31 via thioacetal) [Example 67]	139000	1220	1.55e+06	18800
{C20 diacid}-[γGlu]EKEKEKGEK[βAla]RSSCFGGRIDRIGHYSGLGCPSLRHGGPSSGAPPPS-NH2 (bridge 15-31 via thioacetal) [Example 63]	63800	1090	785000	10600
{C20 diacid}-[γGlu]EKEKEKGEKGRSSCFGGRIDRIGHYSGLGCPSLRHGGPSSGAPPPS-NH2 (disulfide 15-31) [Example 51]	11100	361	82700	909
{C20 diacid}-[γGlu]EKEKEKGS[4Pal]RRSSCFGGRIDRIGHQSGLGCPSFRHSGAPPPSE-NH2 (disulfide 15-31) [Example 39]	9970	276	93300	439
{C20 diacid}-[γGlu]EKEKEKGKE[βAla]RSSCFGGRIDRIGHYSGLGCPSFRHGGPSSGAPPPS-NH2 (bridge 15-31 via thioacetal) [Example 58]	104000	1220	1.38e+06	7150
{C20 diacid}-[γGlu]EKEKEKGEK[βAla]RSSCFGGRIDRIGHYSGLGCPSFRHGGPSSGAPPPS-NH2 (disulfide 15-31) [Example 54]	19300	369	77200	796
{C20 diacid}-[γGlu]EKEKEKGS[4Pal]RRSSCFGGRIDRIGHQSGLGCPSFRHGGPPS[Aib]KPPPK-NH2 (bridge 15-31 via thioacetal) [Example 68]	–	924	1.28e+06	12100
